# ± gives the standard error. Variants at the floor of the assay were thinned out.
# B1: glmS ribozyme (parent)
# chain: AUAAAAGCGCCAGAACUACAGAAAUGUAGUUGACGAGGAGGAGGUUUAUCGAAUUUUCGGCGGAUGCCUCCAAA
# Variants of: B1
# Assay: self-cleavage kobs at 2500 uM GlcN6P; higher = faster cleavage; RNA array
# Settings: with glucosamine-6-phosphate
# How it was run: (§1)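 Glucosamine-6-phosphate, from 40 μM to 10 mM in HEPES/KCl/Mg(OAc)2 buffer, was flowed over sequenced MiSeq chips carrying barcoded ribozyme variants transcribed in situ by E. coli RNA polymerase. A hybridised Cy3 probe tracked the variants at 37 °C as tiles were imaged over ~14 h. kobs, kcat and KM were obtained by fitting normalised per-tile medians to exponential decays and then applying weighted Michaelis–Menten fits across concentrations.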
row,Variant,self-cleavage kobs at 2500 uM GlcN6P
1,AUAAAAGCGCCAGAACUACAGAAAUGUAUUUGACGAGGAGGAGGUUUAUCGAAAUUUCGGCGGAUGCCUACAAA [G29U U54A C70A],6.05e-05 ± 3e-05 s⁻¹
2,AUAAAAGCGCCAGAACUACAGAAAUGUAGGUGACGAGGAGGAUGUUAAUCGAAUUAUCGGCGGAUGCCUCCAAA [U30G G43U U47A U56A],< 1e-05 s⁻¹
3,AUAAAAGCGCCAGAACUACAGAAAUGUAUAUGGCGAUGAGGAGGUUUAUCGAAUUUUCGGCGGAUGCCUCCAAA [G29U U30A A33G G37U],< 1e-05 s⁻¹
4,AUAAAAGCGCCAGAACUACAGAAAUGUAUUUGACGAGGAGGAGGAUUAUCGAACCUUCGGCCGAUGCCUCCAAA [G29U U45A U54C U55C G62C],< 1e-05 s⁻¹
5,AUAAAAGCGCCAGAACUACAGAAAUGUAGCUGAGGAGGAGGAGCUUUAUCGAAUUUGCGGCGGAUGCCUUCAAA [U30C C34G G44C U57G C70U],< 1e-05 s⁻¹
6,AUAAAAGCGCCAGAACUACAGAAAUGUAGUCGACGGGGAGAAGGUUUAUCGAAUUUUCGUCGGAUGCCUCCAAA [U31C A36G G41A G60U],< 1e-05 s⁻¹
7,AUAAAAGCGCCAGAACUACAGAAAUGUAGUAGACGGGGAGGAGGUUUAUCGAAUUUUCGGCGAUUGCCUCUAAA [U31A A36G G63A A64U C71U],< 1e-05 s⁻¹
8,AUAAAAGCGCCAGAACUACAGAAAUGUAGUCGACGAGUAGGAGGUUUAUCGAUUUUUCGGCGGAUGCCUCCAAA [U31C G38U A53U],< 1e-05 s⁻¹
9,AUAAAAGCGCCAGAACUACAGAAAUGUAGCUGACGAGGAGGAGGUUUAUCGAAUUUUCGGCGAAUGCCGCCAAA [U30C G63A U69G],8.06e-05 ± 3.9e-05 s⁻¹
10,AUAAAAGCGCCAGAACUACAGAAAUGUAGUCGACGAGGAGGAGGUUUGUCGAAUUUUCGGCGCAUGUCUCCAAA [U31C A48G G63C C67U],< 1e-05 s⁻¹
11,AUAAAAGCGCCAGAACUACAGAAAUGUAGGUGACUAGGAGGAGGUUUAUCGAAUUUUCUGCGGAUGCCUCCAAA [U30G G35U G59U],< 1e-05 s⁻¹
12,AUAAAAGCGCCAGAACUACAGAAAUGUAGUAGACGAGGAGGAGGUUUAGCGAAUUUUCGGCGGAUGCCUCCAAA [U31A U49G],0.000183 ± 3.1e-05 s⁻¹
13,AUAAAAGCGCCAGAACUACAGAAAUGUAGGUGACGAGGAGUAGUUUUAUCGAAUUUUCGGCGGAUGCCUCCAAA [U30G G41U G44U],< 1e-05 s⁻¹
14,AUAAAAGCGCCAGAACUACAGAAAUGUAGGUGACGAGGAGGAGGUCUAUCGAAUUUUCGGCGGAUGCUUCCAAA [U30G U46C C68U],8.16e-05 ± 1.7e-05 s⁻¹
15,AUAAAAGCGCCAGAACUACAGAAAUGUAGGUGGCGAGGAGGGUGUUUAUCGAAUUUUCGGCGGAUGCCUACAAA [U30G A33G A42G G43U C70A],< 1e-05 s⁻¹
16,AUAAAAGCGCCAGAACUACAGAAAUGUAGUAUACGAGGAGGAGGGUUAUCGAAUUUUCGGCGGAUGCCUCCAAA [U31A G32U U45G],0.000148 ± 5.6e-05 s⁻¹
17,AUAAAAGCGCCAGAACUACAGAAAUGUAGGUGAAGAGGAGGAGGUUUAUCGAAUUUUCGGCGGAUGCUUCCAAA [U30G C34A C68U],< 1e-05 s⁻¹

row,Variant,self-cleavage kobs at 2500 uM GlcN6P
1,AUAAAAGCGCCAGAACUACAGAAAUGUAGGUGACGAGGAGGAGGAUUAUCGAAUUUUGGGCGGAUGCCUCCAAA [U30G U45A C58G],9.63e-05 ± 1.6e-05 s⁻¹
2,AUAAAAGCGCCAGAACUACAGAAAUGUAUUCGACGAGGAGGAGGUUUAUCGAACUUUCGGCGGAUGCCUCCAAA [G29U U31C U54C],0.000161 ± 3.5e-05 s⁻¹
3,AUAAAAGCGCCAGAACUACAGAAAUGUAUUUGACGACGAGGAGGUGUAUCGAAUUUUCGGCGGAUGCCUCCAAA [G29U G37C U46G],< 1e-05 s⁻¹
4,AUAAAAGCGCCAGAACUACAGAAAUGUAGUCGACGAGGAUGAGGUGUAUCGAAUUUUCGGCGGAUGCCUCCAAA [U31C G40U U46G],3.61e-05 ± 1.5e-05 s⁻¹
5,AUAAAAGCGCCAGAACUACAGAAAUGUAGAUGACGAGGGGGAGGUUUAUCGAAUUUUCGGCGGAUGCCGCCAAA [U30A A39G U69G],5.54e-05 ± 2.2e-05 s⁻¹
6,AUAAAAGCGCCAGAACUACAGAAAUGUAUUUGACGAGUAGGAGGUUUAUCGAAUUUUCGGCGGAUUCAGCCAAA [G29U G38U G66U C68A U69G],0.000147 ± 5.8e-05 s⁻¹
7,AUAAAAGCGCCAGAACUACAGAAAUGUAGGUGCCGAGGAGGAGGUUUAUCGAAUUUUCGGCGGAUUCCUCCAAA [U30G A33C G66U],< 1e-05 s⁻¹
8,AUAAAAGCGCCAGAACUACAGAAAUGUAGUCCACGAUGAGCAGGUAUAUCGAUUAUUCGGCGGCUGCCUCCAAA [U31C G32C G37U G41C U46A A53U U55A A64C],< 1e-05 s⁻¹
9,AUAAAAGCGCCAGAACUACAGAAAUGUAGUAAACGAGGAGGAGGUUUAUCGAAUUUUCGGCGGGUGCCUCCAAA [U31A G32A A64G],0.000169 ± 4.6e-05 s⁻¹
10,AUAAAAGCGCCAGAACUACAGAAAUGUAGCUGACGAGGAGGAGGUUUAUGGAAUUUUCGGCGCAUGCCUCCAAA [U30C C50G G63C],0.00014 ± 5.2e-05 s⁻¹
11,AUAAAAGCGCCAGAACUACAGAAAUGUAGAUGACGAGGAGGAUGUUUAUCGAAUUUUCGGAGGAUGCCUCUAAA [U30A G43U C61A C71U],< 1e-05 s⁻¹
12,AUAAAAGCGCCAGAACUACAGAAAUGUAGGUGACGAGGACGAGGUGUAUCGAAUUUUCGGCGGAUGCCUCCAAA [U30G G40C U46G],4.32e-05 ± 1.4e-05 s⁻¹
13,AUAAAAGCGCCAGAACUACAGAAAUGUAGCUGACGAGUAGGCGGUUUAUCGAAUUUUCGGCGGAUGCCUCCAAA [U30C G38U A42C],< 1e-05 s⁻¹
14,AUAAAAGCGCCAGAACUACAGAAAUGUAUUUGACGAGCAGGAGGUUUAUCGAAUUGUCGGCGGAUGCCUCCAAA [G29U G38C U56G],< 1e-05 s⁻¹
15,AUAAAAGCGCCAGAACUACAGAAAUGUAGGUGACGAGGAGGAGAUUUAUCGAAUUUUCGGCGGAUGCCUCCAAA [U30G G44A],6.16e-05 ± 1.7e-05 s⁻¹
16,AUAAAAGCGCCAGAACUACAGAAAUGUAGCUGACGAGGAGGAGAUUUAUCGAAUUUUCGGCGGAUUCCUCCAAA [U30C G44A G66U],< 1e-05 s⁻¹

# Variants of: B1
# Assay: self-cleavage kobs at 10000 uM GlcN6P; higher = faster cleavage; RNA array
# Settings: with glucosamine-6-phosphate
# How it was run: as §1
row,Variant,self-cleavage kobs at 10000 uM GlcN6P
1,AUAAAAGCGCCAGAACUACAGAAAUGUAGUAGACGAGGAGGAGGUUUAGCGAAUUUUCGGCGGAUGCCUCCAAA [U31A U49G],0.000277 ± 4.5e-05 s⁻¹
2,AUAAAAGCGCCAGAACUACAGAAAUGUAGGUGACGAGGAGGAGGUCUAUCGAAUUUUCGGCGGAUGCUUCCAAA [U30G U46C C68U],0.000214 ± 5.2e-05 s⁻¹
3,AUAAAAGCGCCAGAACUACAGAAAUGUAGGUGACGAGGAGGAGGAUUAUCGAAUUUUGGGCGGAUGCCUCCAAA [U30G U45A C58G],0.000163 ± 4.1e-05 s⁻¹
4,AUAAAAGCGCCAGAACUACAGAAAUGUAGGUGACGAGGAGGAGAUUUAUCGAAUUUUCGGCGGAUGCCUCCAAA [U30G G44A],6.05e-05 ± 2e-05 s⁻¹

# From the supplement of paper PMC7125110
